Reference: patent US10314894B2, “Treatment of cardio-renal disease using PCSK6” (THE CLEVELAND CLINIC FOUNDATION, priority 2014, dated 2019)

Biological target: T1, corin variant T555I/Q568P (Homo sapiens, UniProt Q9Y5Q5, Q568P/T555I)
T1 construct: expressed in transfected cells; host or cells: HEK293
T1 sequence (Q9Y5Q5 1-1042 T555I/Q568P): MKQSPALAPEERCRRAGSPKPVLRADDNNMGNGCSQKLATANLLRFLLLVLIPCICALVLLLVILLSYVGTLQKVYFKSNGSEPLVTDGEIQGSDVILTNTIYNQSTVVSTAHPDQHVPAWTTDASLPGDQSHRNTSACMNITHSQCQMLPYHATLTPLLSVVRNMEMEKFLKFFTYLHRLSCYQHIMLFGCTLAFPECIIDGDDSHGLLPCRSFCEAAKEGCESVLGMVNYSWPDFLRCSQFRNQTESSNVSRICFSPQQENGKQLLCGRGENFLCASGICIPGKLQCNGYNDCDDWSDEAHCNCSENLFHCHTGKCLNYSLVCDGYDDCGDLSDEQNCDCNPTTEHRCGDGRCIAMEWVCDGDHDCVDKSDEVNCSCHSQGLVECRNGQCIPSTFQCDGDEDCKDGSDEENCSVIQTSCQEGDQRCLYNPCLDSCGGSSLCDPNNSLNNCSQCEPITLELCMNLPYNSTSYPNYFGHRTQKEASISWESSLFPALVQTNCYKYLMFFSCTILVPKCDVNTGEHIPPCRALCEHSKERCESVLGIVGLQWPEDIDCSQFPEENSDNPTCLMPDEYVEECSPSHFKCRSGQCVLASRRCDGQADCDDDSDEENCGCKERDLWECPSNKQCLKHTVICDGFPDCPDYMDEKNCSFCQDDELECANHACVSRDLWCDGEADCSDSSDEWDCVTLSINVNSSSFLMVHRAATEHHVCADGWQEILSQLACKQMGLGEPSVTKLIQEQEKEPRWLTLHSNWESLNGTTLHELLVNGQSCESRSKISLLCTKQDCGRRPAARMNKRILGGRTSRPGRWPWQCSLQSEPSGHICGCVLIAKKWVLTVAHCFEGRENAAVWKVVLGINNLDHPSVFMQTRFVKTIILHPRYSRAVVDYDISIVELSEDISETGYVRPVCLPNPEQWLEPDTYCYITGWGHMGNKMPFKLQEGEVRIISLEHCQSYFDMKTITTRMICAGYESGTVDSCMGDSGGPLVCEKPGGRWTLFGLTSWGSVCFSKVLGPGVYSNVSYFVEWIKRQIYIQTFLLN
Test: PCSK6-mediated corin activation in HEK293 cells, corin variant T555I/Q568P
Format: cell-based
Conditions: corin T555I/Q568P mutant, Western, densitometry
Source text: Plasmids expressing human corin WT and mutants R801A, S985A, T555I, Q568P, T555I/Q568P, K317E, S472G and R539C were reported previously. Dong, N. et al., J Biol Chem 289, 17909-17916 (2014); Knappe et al., J Biol Chem 278, 52363-52370 (2003); Wu et al., J Biol Chem 277, 16900-16905. (2002). Plasmids expressing human PCSK1-9 were made by cloning respective cDNAs into pcNDA3.1 vector. Recombinant corin and PCSK proteins encoded by these plasmids contained a C-terminal V5 or flag tag for protein detection in Western blotting.
HEK293 and HL-1 cells were transfected with corin or PCSK6 expression plasmids. After 48-72 h, cells were lysed in a buffer containing 25 mM Tris-HCl, pH 7.4, 150 mM NaCl, 1 mM EDTA, 1% (v/v) NP-40, and 1% (v/v) protease inhibitor cocktail. Recombinant corin and PCSK6 proteins were immunoprecipitated with an anti-V5 or anti-flag antibody. Western blotting was carried out to analyze corin expression and activation or PCSK6 expression with or without reducing agents. Percentage of corin activation (corin-p vs. corin fragments) was quantified by densitometric analysis of Western blots.

PCSK6-mediated corin activation, reduction vs. WT (in words): markedly reduced
B1: proprotein convertase subtilisin/kexin-6 (protein, listed as Homo sapiens)
chain: MPPRAPPAPGPRPPPRAAAATDTAAGAGGAGGAGGAGGPGFRPLAPRPWRWLLLLALPAACSAPPPRPVYTNHWAVQVLGGPAEADRVAAAHGYLNLGQIGNLEDYYHFYHSKTFKRSTLSSRGPHTFLRMDPQVKWLQQQEVKRRVKRQVRSDPQALYFNDPIWSNMWYLHCGDKNSRCRSEMNVQAAWKRGYTGKNVVVTILDDGIERNHPDLAPNYDSYASYDVNGNDYDPSPRYDASNENKHGTRCAGEVAASANNSYCIVGIAYNAKIGGIRMLDGDVTDVVEAKSLGIRPNYIDIYSASWGPDDDGKTVDGPGRLAKQAFEYGIKKGRQGLGSIFVWASGNGGREGDYCSCDGYTNSIYTISVSSATENGYKPWYLEECASTLATTYSSGAFYERKIVTTDLRQRCTDGHTGTSVSAPMVAGIIALALEANSQLTWRDVQHLLVKTSRPAHLKASDWKVNGAGHKVSHFYGFGLVDAEALVVEAKKWTAVPSQHMCVAASDKRPRSIPLVQVLRTTALTSACAEHSDQRVVYLEHVVVRTSISHPRRGDLQIYLVSPSGTKSQLLAKRLLDLSNEGFTNWEFMTVHCWGEKAEGQWTLEIQDLPSQVRNPEKQGKLKEWSLILYGTAEHPYHTFSAHQSRSRMLELSAPELEPPKAALSPSQVEVPEDEEDYTAQSTPGSANILQTSVCHPECGDKGCDGPNADQCLNCVHFSLGSVKTSRKCVSVCPLGYFGDTAARRCRRCHKGCETCSSRAATQCLSCRRGFYHHQEMNTCVTLCPAGFYADESQKNCLKCHPSCKKCVDEPEKCTVCKEGFSLARGSCIPDCEPGTYFDSELIRCGECHHTCGTCVGPGREECIHCAKNFHFHDWKCVPACGEGFYPEEMPGLPHKVCRRCDENCLSCAGSSRNCSRCKTGFTQLGTSCITNHTCSNADETFCEMVKSNRLCERKLFIQFCCRTCLLAG
modifications: C-terminal FLAG tag
